Experimental data: US9951110B2, “Neuropeptides useful as insecticides” (THE STATE OF ISRAEL, MINISTRY OF AGRICULTURE & RURAL …, priority 2013, dated 2018)
Ends that are not written are not given here.

Key:
[1] = test system: Heliothis peltigera female moths; assay: Topical application of agonistic peptides: stimulation of sex pheromone biosynthesis (solvent effect on penetrability); type: in vivo
Protocol: FIG. 6. is a graph showing the effect of a topically applied peptide (Peptide 12 in Table 1) on stimulation of sex pheromone biosynthesis in Heliothis peltigera female moths. • The peptide was tested at a concentration of 300 pmol and was applied in DDW, DMSO and IIS for different times (ranging from 0.5 to 7 h). • Statistical analysis compared pheromone content in the presence of the peptide in a given solvent (DDW, DMSO or IIS) at different time points (indicated by small black letters) and between solvents at the same time point (indicated by capital light grey letters). […] FIG. 7A and FIG. 7B are graphs showing the dose-response of a topically applied peptide [Peptide 12 (7A) and Peptide 11 (7B)] on stimulation of sex pheromone biosynthesis in Heliothis peltigera female moths. The peptide was tested at the indicated concentrations and was applied in DDW, IIS and DMSO for 3 h. • Statistical analysis compared pheromone content in the presence of the peptide in a given solvent (DDW, DMSO or IIS) at different concentrations (indicated by black letters) and between solvents at the same concentration (indicated by capital light grey letters). […] The tested peptides are applied onto the insect (e.g. moths) at scotophase (when pheromone is naturally synthesized) in a given solvent for the indicated times. Examination of the effect of carrier solvent on penetrability and activity was tested as a function of time and concentration with peptides 11 and 12 (see Table 1) which are agonistic peptides, i.e. stimulate sex pheromone production in female moths.

[2] = test system: Heliothis peltigera female moths; assay: Environmental (outdoor storage) stability, read out as sex pheromone production after injection; type: physicochemical; settings: for stability: pheromone-stimulating activity after storage vs peptide stored at -80° C.: direct sunlight, about 31° C.; for stability in the course of storage: 4 weeks
Protocol: FIG. 9. is a graph showing the stability of Peptide 12 in a powder form under different storage conditions. • The stability was evaluated by determining sex pheromone production in Heliothis peltigera females exposed to said peptide. • The storage conditions are: (i) exposure to direct sunlight and an average temperature of about 31° C. for 1 week (“outdoor 1 week”); (ii) room temperature (RT); and (iii) −80° C. • Sex pheromone content is expressed as a percentage of the pheromone content obtained by injection of a peptide stored at −80° C. (defined as 100%). Statistical analysis compared pheromone content generated by injection of a peptide stored at room temperature (RT) for 1 week or a peptide kept for 1 week outdoors with that of the control (a peptide stored at −80° C.). […] FIG. 10A and FIG. 10B are graphs showing the stability of Peptide 12 dissolved in DDW or ITS at a concentration of 1 nmol (10A) or 100 pmol (10B) under different storage conditions. • The stability was evaluated by determining sex pheromone production in Heliothis peltigera females exposed to said peptide. • The storage conditions are: (i) exposure to direct sunlight and an average temperature of about 31° C. for 1 week (“outdoor 1 week”); and (ii) −80° C. • Sex pheromone content is expressed as a percentage of the pheromone content obtained by injection of a peptide stored as a dry powder at −80° C. (defined as 100%). Statistical analysis compared the pheromone content generated by the different treatments with that of the control (a peptide stored at −80° C.). […] FIG. 11A and FIG. 11B are graphs showing the stability of Peptide 12 dissolved in DDW (A) or IIS (B) at a concentration of 1 nmol, and exposed to direct sunlight and temperatures in the range of 27° C. to 31° C. for 1-4 weeks or by a peptide stored at 4° C. for 1-4 weeks. • The stability was evaluated by determining sex pheromone production in Heliothis peltigera females exposed to said peptide. • Activity is expressed as a percentage of that obtained by Peptide 12 stored at −80° C. (defined as 100%, not shown in the figures). • Statistical analysis compared activity at the same storage time at 4° C. and outdoor, and as a function of time within the same treatment (outdoor or 4° C.) as a function of storage time (capital letters). […] This assay is used to test the agonistic properties of the tested peptides (in adult females), and to determine the peptides melanotropic agonistic or antagonistic properties (in larvae). It was also used to determine the activity of peptides that were stored outdoors for different amounts of time. In order to evaluate the environmental stability of the peptides, peptide 12 (in Table 1) was tested. Stability was monitored by exposing a tube containing the peptide, either in the form of a dry powder or in solution made up in either DDW or IIS at a concentration of 100 pmol or 1 nmol, to direct sun light and a temperature range of 27 to 31° C. (“outdoor”). […] Similar results were obtained at a lower dose of the peptide, of 100 pmol (FIG. 10B). The peptide was also tested for stability for 4 weeks when dissolved in either DDW or IIS, at a concentration of 1 nmol, under the same conditions as above at a temperature range of 27° C. to 31° C.

Acetyl-Tyr-Phe-Trp-Pro-Arg-Leu-amide (Ac-YFWPRL-NH2) [Peptide 12, agonistic peptide lacking a dPhe residue, tested for bioavailability and environmental stability]
stimulation of sex pheromone biosynthesis: effect of carrier on bioavailability ([1]; 300 pmol, DDW, DMSO and IIS, 0.5 to 7 h): IIS has been found to be the best carrier
stimulation of sex pheromone biosynthesis, dose response by carrier ([1]; 3 h, DDW, IIS, DMSO): higher activity in IIS compared to DDW or DMSO
stability: pheromone-stimulating activity after storage vs peptide stored at -80° C. ([2]; dissolved in DDW or IIS, 100 pmol, 1 week): no significant difference
activity of peptide kept outdoor vs at 4° C. at the same storage time ([2]; dissolved in DDW or IIS, 1 nmol, 1-4 weeks): No differences
stability: pheromone-stimulating activity after storage vs peptide stored at -80° C. ([2]; dissolved in DDW or IIS, 1 nmol, 1 week): no significant difference
stability in the course of storage ([2]; dissolved in DDW, 1 nmol, outdoor 27° C. to 31° C. or 4° C.): the activity dropped in the course of storage
stability in the course of storage ([2]; dissolved in IIS, 1 nmol, outdoor 27° C. to 31° C.): much more stable
stability: pheromone-stimulating activity after storage vs peptide stored at -80° C. ([2]; dry powder, 1 week, or room temperature): no significant difference

Tyr-Phe-Trp-Pro-Arg-Leu-amide (YFWPRL-NH2) [Peptide 11, agonistic peptide lacking a dPhe residue, tested for bioavailability]
stimulation of sex pheromone biosynthesis ([1]; 3 h, in DDW and IIS): barely any activity
stimulation of sex pheromone biosynthesis ([1]; 3 h, in DMSO): very active
